Test results reported in patent US20160000865A1 (REGENTS OF THE UNIVERSITY OF MICHIGAN, published 2016).
Values belong to the binder of their own block, whether it stands above or below them.

B2: Endogenous Robo1 of mouse small intestinal crypts (receptor, UniProt O89026 20-1612, looked up)
chain: SRLRQEDFPPRIVEHPSDLIVSKGEPATLNCKAEGRPTPTIEWYKGGERVETDKDDPRSHRMLLPSGSLFFLRIVHGRKSRPDEGVYICVARNYLGEAVSHNASLEVAILRDDFRQNPSDVMVAVGEPAVMECQPPRGHPEPTISWKKDGSPLDDKDERITIRGGKLMITYTRKSDAGKYVCVGTNMVGERESEVAELTVLERPSFVKRPSNLAVTVDDSAEFKCEARGDPVPTVRWRKDDGELPKSRYEIRDDHTLKIRKVTAGDMGSYTCVAENMVGKAEASATLTVQEPPHFVVKPRDQVVALGRTVTFQCEATGNPQPAIFWRREGSQNLLFSYQPPQSSSRFSVSQTGDLTITNVQRSDVGYYICQTLNVAGSIITKAYLEVTDVIADRPPPVIRQGPVNQTVAVDGTLILSCVATGSPAPTILWRKDGVLVSTQDSRIKQLESGVLQIRYAKLGDTGRYTCTASTPSGEATWSAYIEVQEFGVPVQPPRPTDPNLIPSAPSKPEVTDVSKNTVTLSWQPNLNSGATPTSYIIEAFSHASGSSWQTAAENVKTETFAIKGLKPNAIYLFLVRAANAYGISDPSQISDPVKTQDVPPTSQGVDHKQVQRELGNVVLHLHNPTILSSSSVEVHWTVDQQSQYIQGYKILYRPSGASHGESEWLVFEVRTPTKNSVVIPDLRKGVNYEIKARPFFNEFQGADSEIKFAKTLEEAPSAPPRSVTVSKNDGNGTAILVTWQPPPEDTQNGMVQEYKVWCLGNETKYHINKTVDGSTFSVVIPSLVPGIRYSVEVAASTGAGPGVKSEPQFIQLDSHGNPVSPEDQVSLAQQISDVVRQPAFIAGIGAACWIILMVFSIWLYRHRKKRNGLTSTYAGIRKVPSFTFTPTVTYQRGGEAVSSGGRPGLLNISEPATQPWLADTWPNTGNNHNDCSINCCTAGNGNSDSNLTTYSRPADCIANYNNQLDNKQTNLMLPESTVYGDVDLSNKINEMKTFNSPNLKDGRFVNPSGQPTPYATTQLIQANLSNNMNNGAGDSSEKHWKPPGQQKPEVAPIQYNIMEQNKLNKDYRANDTIPPTIPYNQSYDQNTGGSYNSSDRGSSTSGSQGHKKGARTPKAPKQGGMNWADLLPPPPAHPPPHSNSEEYNMSVDESYDQEMPCPVPPAPMYLQQDELQEEEDERGPTPPVRGAASSPAAVSYSHQSTATLTPSPQEELQPMLQDCPEDLGHMPHPPDRRRQPVSPPPPPRPISPPHTYGYISGPLVSDMDTDAPEEEEDEADMEVAKMQTRRLLLRGLEQTPASSVGDLESSVTGSMINGWGSASEEDNISSGRSSVSSSDGSFFTDADFAQAVAAAAEYAGLKVARRQMQDAAGRRHFHASQCPRPTSPVSTDSNMSAVVIQKARPAKKQKHQPGHLRREAYADDLPPPPVPPPAIKSPTVQSKAQLEVRPVMVPKLASIEARTDRSSDRKGGSYKGREALDGRQVTDLRTNPSDPREAQEQPNDGKGRGTRQPKRDLPPAKTHLGQEDILPYCRPTFPTSNNPRDPSSSSSMSSRGSGSRQREQANVGRRNMAEMQVLGGFERGDENNEELEETES
notes: also called native Robo1

Experiments:
[1] = target: T1, Recombinant human Robo1 encoding the extracellular five Ig-like domains fused with the Fc domains of human … (human, UniProt Q9Y6N7 26-540; P01857 99-330 = IgG part); assay: Protein A bead pulldown, immunoblot for His
T1 construct: domain: extracellular five Ig domains (1-1621 bp);domain: Fc domains of human IgG1; also called Robo1-Fc; rRobo1-Fc
Experimental: (§1) To confirm our initial findings, various deletion mutants of Robo1 fused with hemagglutin (HA) tag were employed (FIG. 15B) (see, e.g., Wong, K., et al., (2001) Cell 107, 209-221). Recombinant human Rspo1 fused with 6-His (His) tag expressed in Sf9 insect cells (rRspo1; FIG. 15C and FIG. 17B) were also purified. […] Following incubation, immunoprecipitation was performed by the anti-HA Ab, followed by immunoblotting with the Abs for rRspo1 (His) and Robo1 (HA). […] Compared to human IgG (hIgG) bound Protein A (Pro-A) beads, recombinant Robo1-Fc chimera (rRobo1-Fc; FIG. 17C) bound Pro-A beads precipitated rRspo1 (His; FIG. 15E and FIG. 16C). Additionally, rRobo1-Fc bound Pro-A beads precipitated purified recombinant Rspo1-N (rRspo1-N), but not recombinant Rspo1-C (rRspo1-C; FIGS. 15C and F and FIGS. 16D and 17B). To determine which extracellular Ig domains of Robo1 could recognize Rspo1, recombinant extracellular Ig domains 1-5 of Robo1 fused with glutathione S-transferase were constructed, expressed and purified (GST-Ig1-5; FIG. 15B and FIG. 16D).

[2] = target: T2, Native LRP6 of mouse small intestinal crypts (mouse, UniProt O88572 20-1613); assay: immunoprecipitation of endogenous Robo1 from crypt lysates of C57 small intestines, immunoblot (FIG. 15H)
T2 construct: also called endogenous LRP6; endogenous Lrp6

[3] = target: T3, Recombinant human Rspo1 fused with 6-His (His) tag expressed in Sf9 insect cells (human, UniProt Q2MKA7 21-263); assay: glutathione-Sepharose pulldown, immunoblot
T3 construct: Baculovirus expression; also called rRspo1; R-spondin 1; not shown: 6-His tag
Experimental: as §1
For the pulldown assay, 3 μg of the appropriate purified GST-tagged fusion protein and isolated His-tagged fusion protein were incubated with 20 μl glutathione Sepharose beads (GE Healthcare Biosciences) in PBS containing 1% BSA at 4° C. for 2 h. […]

[4] = target: B2; assay: co-immunoprecipitation from mouse intestinal crypt lysates, immunoblot
Experimental: 293 cells were co-transfected with the plasmids of Robo1 or Robo1-dCC3 and LRP6. Transfected Robo1 was immunoprecipitated by the anti-HA Ab, followed by immunoblotting for LRP6 (myc) and Robo1 (HA). (L) LRP6 interacts with CC3. 293 cells transfected with the LRP6 plasmid were incubated with rCC0/1, rCC2 and rCC3. After washing, transfected LRP6 was immunoprecipitated by the anti-HA Ab, followed by immunoblotting for rCC0/1, rCC2 and rCC3 (His) and LRP6 (myc). (M) LRP6 M3 binds to CC3. The glutathione-Sepharose beads were incubated with the GST-M1-3. After washing, they were incubated with rCC3, followed by immunoblotting for rCC3 (His) and rGST-M1-3. (N and O) Transfected Robo1 enhances LRP6 binding to LGR5. 293 cells were co-transfected with the plasmids of LGR5 and LRP6, in the presence or absence of the Robo1 plasmid (N). Alternatively, 293 cells were co-transfected with the plasmids of LGR5, LRP6 and Robo1, followed by infection with Ad-GFP or Ad-CC3 (0). Lysates of these transfectants were immunoprecipitate for LRP6 (myc) and immunoblotted for LGR5 (flag), LRP6 (myc) and Robo1 (HA), respectively. (P) Endogenous Robo1 promotes LRP6 association with LGR5. […]
This example describes Rspo1 binds to extracellular Robo1. […] Indeed, the intestinal expression of Rspo1 was detected in the tissue sections of adult small intestine (FIG. 14). […]

T2 sequence (O88572 20-1613 limits assumed): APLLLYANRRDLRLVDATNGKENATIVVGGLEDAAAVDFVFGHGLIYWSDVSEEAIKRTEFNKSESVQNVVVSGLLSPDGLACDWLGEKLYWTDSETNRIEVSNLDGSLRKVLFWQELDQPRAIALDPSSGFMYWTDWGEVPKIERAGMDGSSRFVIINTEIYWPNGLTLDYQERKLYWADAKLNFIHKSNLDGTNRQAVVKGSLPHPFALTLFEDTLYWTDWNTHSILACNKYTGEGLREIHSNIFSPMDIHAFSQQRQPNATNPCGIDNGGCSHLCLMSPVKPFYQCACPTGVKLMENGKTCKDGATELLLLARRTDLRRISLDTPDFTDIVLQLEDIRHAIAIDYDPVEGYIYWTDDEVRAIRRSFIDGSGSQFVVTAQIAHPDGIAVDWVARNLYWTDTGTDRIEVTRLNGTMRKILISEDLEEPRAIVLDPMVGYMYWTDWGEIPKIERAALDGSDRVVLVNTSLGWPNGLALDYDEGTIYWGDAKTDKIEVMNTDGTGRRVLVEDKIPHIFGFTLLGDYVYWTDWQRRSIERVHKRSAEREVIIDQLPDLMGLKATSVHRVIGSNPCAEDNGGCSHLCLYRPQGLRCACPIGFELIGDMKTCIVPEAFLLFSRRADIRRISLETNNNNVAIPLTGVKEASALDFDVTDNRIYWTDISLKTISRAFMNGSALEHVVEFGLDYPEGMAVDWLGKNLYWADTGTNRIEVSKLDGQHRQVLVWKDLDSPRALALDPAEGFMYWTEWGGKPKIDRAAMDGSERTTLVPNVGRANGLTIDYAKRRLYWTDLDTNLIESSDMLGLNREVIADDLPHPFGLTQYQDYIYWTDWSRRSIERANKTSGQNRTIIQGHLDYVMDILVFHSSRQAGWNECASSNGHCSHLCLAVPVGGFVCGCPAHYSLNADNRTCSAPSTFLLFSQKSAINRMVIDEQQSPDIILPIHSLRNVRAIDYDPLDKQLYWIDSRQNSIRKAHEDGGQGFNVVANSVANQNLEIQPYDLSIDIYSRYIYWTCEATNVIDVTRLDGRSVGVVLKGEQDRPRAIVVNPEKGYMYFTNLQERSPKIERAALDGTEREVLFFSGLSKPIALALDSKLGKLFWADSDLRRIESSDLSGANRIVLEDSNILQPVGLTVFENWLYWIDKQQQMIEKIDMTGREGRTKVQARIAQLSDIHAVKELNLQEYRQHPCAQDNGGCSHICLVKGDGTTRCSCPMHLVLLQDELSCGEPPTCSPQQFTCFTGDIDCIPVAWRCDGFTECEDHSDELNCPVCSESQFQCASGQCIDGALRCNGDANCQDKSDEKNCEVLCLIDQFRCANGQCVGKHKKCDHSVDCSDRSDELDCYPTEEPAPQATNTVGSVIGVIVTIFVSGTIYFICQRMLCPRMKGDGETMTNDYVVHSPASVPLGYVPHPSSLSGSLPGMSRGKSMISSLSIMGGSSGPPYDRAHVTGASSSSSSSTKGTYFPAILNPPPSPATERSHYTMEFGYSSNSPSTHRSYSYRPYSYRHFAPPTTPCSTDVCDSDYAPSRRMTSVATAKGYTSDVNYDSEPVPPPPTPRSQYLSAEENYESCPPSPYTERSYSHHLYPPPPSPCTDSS
T1 sequence (Q9Y6N7 other isoform, or with tags, fused parts or gaps limits assumed): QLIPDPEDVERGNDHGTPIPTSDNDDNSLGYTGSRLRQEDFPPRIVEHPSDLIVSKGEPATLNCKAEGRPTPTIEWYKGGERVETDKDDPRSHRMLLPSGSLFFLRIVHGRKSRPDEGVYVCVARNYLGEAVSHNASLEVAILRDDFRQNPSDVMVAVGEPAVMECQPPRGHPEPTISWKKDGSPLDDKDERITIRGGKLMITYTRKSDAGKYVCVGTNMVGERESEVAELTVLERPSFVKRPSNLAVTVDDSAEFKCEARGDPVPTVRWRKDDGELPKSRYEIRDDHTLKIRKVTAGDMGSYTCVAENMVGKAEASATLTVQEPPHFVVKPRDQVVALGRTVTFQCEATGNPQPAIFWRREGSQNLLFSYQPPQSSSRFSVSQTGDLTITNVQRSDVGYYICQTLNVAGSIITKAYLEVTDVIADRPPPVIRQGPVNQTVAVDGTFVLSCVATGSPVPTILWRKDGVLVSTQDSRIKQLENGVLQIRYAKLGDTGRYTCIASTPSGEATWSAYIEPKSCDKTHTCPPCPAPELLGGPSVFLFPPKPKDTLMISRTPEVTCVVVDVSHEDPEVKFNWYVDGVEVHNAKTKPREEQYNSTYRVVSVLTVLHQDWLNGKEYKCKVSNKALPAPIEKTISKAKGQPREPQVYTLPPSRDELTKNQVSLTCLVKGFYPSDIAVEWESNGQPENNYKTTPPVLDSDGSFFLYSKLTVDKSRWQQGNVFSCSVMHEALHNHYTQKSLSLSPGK

Binder: B2
- binding result [2]: binds

B3: Extracellular Ig5 domain of Robo1 fused with GST (other, human, UniProt Q9Y6N7 455-541, looked up)
chain: PVIRQGPVNQTVAVDGTFVLSCVATGSPVPTILWRKDGVLVSTQDSRIKQLENGVLQIRYAKLGDTGRYTCIASTPSGEATWSAYIE
notes: domain: extracellular Ig5 domain; also called GST-Ig5; not shown: glutathione S-transferase of the PGEX6P1 vector
- binding result [3]: no binding

Further lines, results first:

- binding result [1]: no binding
B1: Carboxyl-terminal segment of Rspo1 including one TSR repeat, fused with 6-His tag (ligand, human, UniProt Q2MKA7 147-263, looked up)
chain: QCEMSEWSPWGPCSKKQQLCGFRRGSEERTRRVLHAPVGDHAACSDTKETRRCTVRRVPCPEGQKRRKGGQGRRENANRNLARKESKEAGAGSRRRKGQQQQQQQGTVGPLTSAGPA
notes: domain: carboxyl-terminus of Rspo1 containing one TSR repeat; also called rRspo1-C; Rspo1-C; not shown: 6-His tag of the PETM vector

- binding result [3]: no binding
B4: Extracellular Ig2 domain of Robo1 fused with GST (other, human, UniProt Q9Y6N7 170-257, looked up)
chain: DDFRQNPSDVMVAVGEPAVMECQPPRGHPEPTISWKKDGSPLDDKDERITIRGGKLMITYTRKSDAGKYVCVGTNMVGERESEVAELT
notes: domain: extracellular Ig2 domain; also called GST-Ig2; not shown: glutathione S-transferase of the PGEX6P1 vector

- binding result [4]: binds
B5: Native Rspo1 of mouse small intestinal crypts (ligand, UniProt Q9Z132 21-265, looked up)
chain: SRGIKGKRQRRISAEGSQACAKGCELCSEVNGCLKCSPKLFILLERNDIRQVGVCLPSCPPGYFDARNPDMNKCIKCKIEHCEACFSHNFCTKCQEALYLHKGRCYPACPEGSTAANSTMECGSPAQCEMSEWSPWGPCSKKRKLCGFRKGSEERTRRVLHAPGGDHTTCSDTKETRKCTVRRTPCPEGQKRRKGGQGRRENANRHPARKNSKEPRSNSRRHKGQQQPQPGTTGPLTSVGPTWAQ
